The results in this text go back to article PMC10620413, “Dimeric Transmembrane Structure of the SARS-CoV-2 E Protein” (Communications Biology, 2023).

The target of data set [1] is SARS-CoV-2 E protein transmembrane domain E_(12–37) (SARS-CoV-2 (isolate Wuhan-Hu-1)). Kind of data set: SDS-PAGE.
Data set [2] deals with the molecule itself. The data set is described as follows: SDS-PAGE.

Take “SARS-CoV-2 E protein transmembrane domain E_(12–37) (domain or fragment)”: the stoichiometry N (as a rule, the number of molecules, sites or subunits per partner or assembly) in data set [1] was 2.

For SNAETGTLIVNSVLLFLAFVVFLLVTLAILTALRLSA (domain or fragment, not shown: MBP, N-terminal, cleaved) [SARS-CoV-2 E protein fragment E_(8–41)], the “stoichiometry N” value in data set [2] stood at 2.
